“And” between values parts separate entries of the source, which are not always exact repeats. Equal values may be shown once. “Also recorded” adds a separate entry of the source.
Experiments:
[1] = competitive ELISA, affinity of mAbs toward their immunizing hapten; details: concentration of soluble hapten for 50% binding
Method: Supernatants of the growing hybridomas were screened for antibodies reactive with ZnTCPP, CoTCPP or Imisdp using direct ELISA in which respective hapten-BSA (3 μg/ml in PBS) was coated to Nunc maxisorp plates. The coating was performed at 4° C. overnight and incubation with antibodies at 20° C. for 1 h. HRP-conjugated anti-mouse mAb (Sigma) was used as the secondary antibody and 2,2′-azino-bis (3-ethylbenzthiazoline-6-sulphonic acid, ABTS, Sigma) was used as substrate. PBS containing 0.005% v/v Tween 20 (PBST) was used as washing reagent. The dilution buffer was PBS. A602 was recorded by microplate reader in […]luor Plus spectrometer (Tecan, Austria). As control supernatants were incubated with BSA coated plates in the same manner Absorbance values above 0.5 millioptical density were considered as positive.
Different dilutions of hybridoma supernatant were incubated with hapten-BSA coated plates following the steps described earlier. Titration curve was plotted and the titer dilution was determined at 50% of binding. Supernatants diluted to the titer concentration were preincubated with soluble ZnTCPP, CoTCPP or Imisdp compounds for 30 minutes and then transferred to hapten-coated microtiter plates following the steps described previously. The estimated dissociation constant was the concentration of soluble hapten required to attain 50% binding.

MMP-2 = assay: kinetic assay with fluorogenic peptide substrate, MMP-2; format: biochemical, human; details: for inhibition of proteolytic activity of MMP-2: continuous fluorometric assay
MMP-9 = assay: kinetic assay with fluorogenic peptide substrate, MMP-9; format: biochemical, human; details: for mode of inhibition of MMP-9: Lineweaver-Burk plot; for IC50: Table 4; for inhibition of proteolytic activity of MMP-9: continuous fluorometric assay
MMP-9, sequence (P14780 107-444 limits assumed): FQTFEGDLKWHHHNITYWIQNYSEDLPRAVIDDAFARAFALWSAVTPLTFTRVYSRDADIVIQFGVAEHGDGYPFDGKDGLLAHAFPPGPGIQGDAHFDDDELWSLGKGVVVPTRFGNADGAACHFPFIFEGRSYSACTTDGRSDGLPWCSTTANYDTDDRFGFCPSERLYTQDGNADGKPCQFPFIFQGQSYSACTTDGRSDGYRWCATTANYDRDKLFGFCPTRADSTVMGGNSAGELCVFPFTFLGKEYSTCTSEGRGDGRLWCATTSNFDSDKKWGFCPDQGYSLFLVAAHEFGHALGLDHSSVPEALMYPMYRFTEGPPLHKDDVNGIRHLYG

MT1-MMP (MMP-14) = MT1-MMP (MMP-14) (Homo sapiens, UniProt P50281); assay: kinetic assay with fluorogenic peptide substrate, MT1-MMP; format: biochemical; details: for Ki: fit to competitive inhibition, fluorogenic peptide substrate
TACE (ADAM-17) = TACE (ADAM-17) (Homo sapiens, UniProt P78536); assay: kinetic assay with fluorogenic peptide QF-45, TACE; format: biochemical; details: for inhibitory effect toward TACE: in-vitro fluorescence enzymatic activity assay
TACE (ADAM-17), sequence (P78536 215-824, species assumed): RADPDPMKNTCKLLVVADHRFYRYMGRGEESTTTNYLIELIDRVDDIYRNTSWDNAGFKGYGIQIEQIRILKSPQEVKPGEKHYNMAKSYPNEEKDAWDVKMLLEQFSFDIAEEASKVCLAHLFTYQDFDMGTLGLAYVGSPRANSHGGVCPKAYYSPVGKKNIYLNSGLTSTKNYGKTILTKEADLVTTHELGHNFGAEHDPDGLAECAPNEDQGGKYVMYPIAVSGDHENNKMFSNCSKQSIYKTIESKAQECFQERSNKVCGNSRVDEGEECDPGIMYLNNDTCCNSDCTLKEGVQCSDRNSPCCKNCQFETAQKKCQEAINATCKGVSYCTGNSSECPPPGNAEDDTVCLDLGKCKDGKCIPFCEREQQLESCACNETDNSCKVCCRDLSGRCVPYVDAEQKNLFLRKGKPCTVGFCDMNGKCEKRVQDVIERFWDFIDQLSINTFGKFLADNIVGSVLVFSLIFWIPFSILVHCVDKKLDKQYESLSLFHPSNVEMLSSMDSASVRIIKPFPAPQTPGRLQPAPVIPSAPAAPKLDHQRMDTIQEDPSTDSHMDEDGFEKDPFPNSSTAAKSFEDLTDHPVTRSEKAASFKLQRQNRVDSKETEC

[2] = tested on: cell surface gelatinolytic activity of HT1080 cells; assay: in situ zymography with DQ-gelatin; format: cell-based, human
Method: To localize net gelatinolytic activity of MMPs by in situ zymography, fluorescein isothiocyanate-labeled DQ gelatin that is intramolecularly quenched (Molecular Probes) was used as a substrate for degradation by gelatinases. Proteolysis by gelatinases yields cleaved fluorescein isothiocyanate-gelatin peptides and the localization of this fluorescence indicates the sites of net gelatinolytic activity. Briefly, Human fibrosarcoma HT1080 cells (which produce MMP-2, MMP-9 and MT1-MMP) were plated on 12-mm coverslips. […] Untreated cells served as negative control for this experiment. Cells were washed with PBS and then incubated with zymography reaction buffer (0.05 M Tris-HCl, 0.15 M NaCl, 5 mM CaCl2, and 0.2 mM NaN3, pH 7.6, the high concentration of azide prevented the gelatin from being phagocytosed and thus allowing cell surface gelatinolytic activity to occur) containing 60 ug/ml DQ gelatin at 37° C. overnight. […] At the end of the incubation period, without fixation or further washes, gelatinolytic activity of the MMPs was localized and photographed by fluorescence microscopy and images were acquired by Spot digital camera.
To confirm the inhibitory activity of anti CoTCPP mAb at cellular level, the effect of the antibody was examined on gelatinolytic activity of human fibrosarcoma HT1080 cells that constitutively secrete MMP-2 and 9 by in situ zymography. To localize gelatinolytic activity of MMPs by in situ zymography, fluorescein isothiocyanate-labeled gelatin that is intramolecularly quenched (DQ-gelatin) was used as substrate. Proteolysis by gelatinases yields cleaved fluorescein isothiocyanate-gelatin peptides and the localization of this fluorescence indicates the sites of net gelatinolytic activity.

Carbonic Anhydrase (CA) [3] = assay: functional inhibition experiment, Carbonic Anhydrase; format: biochemical; details: for inhibition of Carbonic Anhydrase: in vitro functional inhibition
From the text: (§1) The selectivity of anti CoTCPP and anti Imisdp was further challenged, by testing their cross reactivity with non related zinc dependent enzymes—Carbonic Anhydrase (CA) and brockii alcohol dehydrogenase (TbADH). Similar to active MMPs CA contains a zinc ion that is tetrahedraly coordinated to three histidine residues and a water molecule, TbADH contains a catalytic zinc ion that is tetraheadrally coordinated to four different amino acid residues, histidine, cysteine, aspartate and glutamate. […] Anti CoTCPP mAb was also tested for its cross reactivity with related physiological porphyrins such as the Heme group within Myoglobin and Hemoglobin and vitamin.
(§2) 6C6 was also tested for cross reactivity with different zinc dependent metalloproteases, Carbonic Anhydrase and Alcohol Dehydrogenase. Analogous to MMPs, Carbonic Anhydrase (CA) has a catalytic zinc ion tetrahedraly coordinated to three histidine ligands and a water molecule. Consequently, several potent small molecule MMP inhibitors (of the sulfonylated amino acid hydroxamate type) also act as efficient CA inhibitors and vice versa. Some N-hydroxysulfonamides investigated previously as CA inhibitors also show inhibitory properties against MMPs [Scozzafava, A. and C. T. Supuran, J Med Chem, 2000. 43(20): p. 3677-87]. The active site of Alcohol Dehydrogenase from thermophilic bacterium (TbADH) includes a different zinc-protein moiety in which zinc is bound to histidine, cysteine, aspartate and glutamate located inside a crevice.

Carbonic Anhydrase (CA) [4] = assay: immuno affinity binding experiment, Carbonic Anhydrase
From the text: as §1

[5] = target: T1, Alcohol Dehydrogenase (TbADH) (Thermoanaerobacter brockii, UniProt P14941); assay: functional inhibition experiment, alcohol dehydrogenase; format: biochemical, thermophilic bacterium; details: for inhibition of TbADH: in vitro functional inhibition
T1 sequence (P14941 1-352): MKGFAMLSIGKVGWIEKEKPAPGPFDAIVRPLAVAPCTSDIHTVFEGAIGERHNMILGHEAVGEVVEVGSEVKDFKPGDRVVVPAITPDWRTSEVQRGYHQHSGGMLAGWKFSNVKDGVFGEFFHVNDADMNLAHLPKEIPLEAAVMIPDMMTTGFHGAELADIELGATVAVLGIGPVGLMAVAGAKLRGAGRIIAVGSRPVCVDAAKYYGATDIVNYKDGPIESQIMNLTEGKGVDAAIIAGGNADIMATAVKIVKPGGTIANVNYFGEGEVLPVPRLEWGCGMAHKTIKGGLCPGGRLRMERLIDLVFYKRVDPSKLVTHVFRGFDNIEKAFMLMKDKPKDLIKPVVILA
From the text: as §1, §2

[6] = target: T2, brockii alcohol dehydrogenase (TbADH) (Thermoanaerobacter brockii, UniProt P14941); assay: immuno affinity binding experiment, alcohol dehydrogenase; set-up: species or system thermophilic bacterium
T2 sequence (P14941 1-352): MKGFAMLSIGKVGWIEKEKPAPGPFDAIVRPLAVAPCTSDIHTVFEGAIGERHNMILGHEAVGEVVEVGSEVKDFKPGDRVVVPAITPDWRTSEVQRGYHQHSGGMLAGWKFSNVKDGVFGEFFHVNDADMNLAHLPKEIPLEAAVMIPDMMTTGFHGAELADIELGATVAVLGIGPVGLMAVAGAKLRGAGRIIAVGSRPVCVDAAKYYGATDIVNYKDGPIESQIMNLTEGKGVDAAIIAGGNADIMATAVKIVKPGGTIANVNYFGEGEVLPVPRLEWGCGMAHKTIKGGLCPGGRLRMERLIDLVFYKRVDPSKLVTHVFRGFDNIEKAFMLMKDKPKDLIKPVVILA
From the text: as §1

[7] = target: T3, Heme group within Myoglobin (Homo sapiens, UniProt P02144); assay: cross reactivity, competitive ELISA and immuno affinity assay, Myoglobin; format: binding
T3 sequence (P02144 1-154): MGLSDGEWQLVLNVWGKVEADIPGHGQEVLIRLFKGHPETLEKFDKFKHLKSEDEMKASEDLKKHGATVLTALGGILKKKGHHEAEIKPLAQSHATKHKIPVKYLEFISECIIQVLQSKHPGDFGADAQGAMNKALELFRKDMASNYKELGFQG
From the text: as §1

MMP9 = MMP9 (Homo sapiens, UniProt P14780); assay: cleavage of mAb by MMP-9 on overnight incubation; details: overnight incubations with 30 μM MMP9
MMP9, sequence (P14780 94-707): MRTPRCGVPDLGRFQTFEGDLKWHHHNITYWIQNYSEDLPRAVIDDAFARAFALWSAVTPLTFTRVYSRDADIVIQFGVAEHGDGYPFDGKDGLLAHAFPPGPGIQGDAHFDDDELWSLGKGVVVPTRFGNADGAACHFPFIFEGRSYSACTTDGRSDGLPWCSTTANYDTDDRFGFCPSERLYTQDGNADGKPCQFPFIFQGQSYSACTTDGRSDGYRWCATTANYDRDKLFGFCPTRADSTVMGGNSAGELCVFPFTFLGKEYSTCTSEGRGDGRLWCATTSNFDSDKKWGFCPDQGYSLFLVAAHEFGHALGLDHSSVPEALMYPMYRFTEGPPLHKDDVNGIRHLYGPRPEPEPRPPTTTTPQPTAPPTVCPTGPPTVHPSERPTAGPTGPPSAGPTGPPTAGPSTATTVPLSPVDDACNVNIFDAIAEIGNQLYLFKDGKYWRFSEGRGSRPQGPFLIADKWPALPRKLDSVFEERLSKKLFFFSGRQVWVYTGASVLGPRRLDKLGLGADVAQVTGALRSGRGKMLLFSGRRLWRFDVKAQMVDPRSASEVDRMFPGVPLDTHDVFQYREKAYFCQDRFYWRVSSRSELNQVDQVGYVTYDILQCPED

B1: 13E11: monoclonal antibody, IgG2b, raised against the hapten CoTCPP (antibody, V domains shown)
VH: EGGGLVQPGGSRKLSCAASGFTFTSFGMHWVRQAPEKGLEWVAYISSGNEIIYYADTVKGRFTISRDNPKNTLFLQMTSLRSEDTAMYYCARNYYRYGFYVMDYWGQG
VL: EIVVTQSPAILSASPGEKVTMTCRASSSVSYMHWYQQKPGSSPKPWIYATSNELASGVPARFSGSGSGTSYSLTISRVEAEDAATYYCQQWISNPLTFGAG
modifications: 13E11 mAb heavy chain; 13E11 mAb light chain
notes: monoclonal antibody, IgG2b, raised against the hapten CoTCPP
[1]
  Kd: 0.09 µM
MMP-2
  inhibition of proteolytic activity of MMP-2: inhibited
MMP-9
  mode of inhibition of MMP-9: competitive inhibitor
  IC50: 15 ± 0.8 µM
  inhibition of proteolytic activity of MMP-9: inhibited
MT1-MMP (MMP-14); in-vitro fluorescence enzymatic activity assay
  inhibitory effect toward MT1-MMP: no inhibitory effect
TACE (ADAM-17)
  inhibitory effect toward TACE: no inhibitory effect
[2]; 1 μM mAb, listed as anti CoTCPP mAb
  cell surface gelatinase activity: reduced; also recorded: significantly inhibited
Carbonic Anhydrase (CA) [3]
  inhibition of Carbonic Anhydrase: no binding or inhibition
Carbonic Anhydrase (CA) [4]
  binding to Carbonic Anhydrase: no binding
[5]
  inhibition of TbADH: no binding or inhibition
[6]
  binding to TbADH: no binding
[7]
  cross reactivity with Myoglobin: No cross was detected

B2: 6C6: monoclonal antibody, IgG2a, raised against the hapten Imisdp; MMP-2 and MMP-9 inhibitory; SEQ ID NO: 1 (protein)
chain: CMETTQTPLSLPVSLGDQASISCRSSQSIVHSNGNTFLEWYLQKPGQSPKLLIYKVSNCRFSGVPDRFSGSGSGTDFTLKISRVEAEDLGVYYCFQASHVPPTFGGG
modifications: 6c6 mAb light chain
[1]
  Kd: 0.09 µM
MMP-2; Table 4
  IC50: 3 ± 0.2 µM
MMP-2
  inhibition of proteolytic activity of MMP-2: inhibited
MMP-9
  mode of inhibition of MMP-9: competitive inhibition profile
  IC50: 4.5 ± 0.2 µM
  inhibition of proteolytic activity of MMP-9: inhibited
MT1-MMP (MMP-14); Table 4
  IC50: 14.4 ± 0.7 µM
MT1-MMP (MMP-14)
  Ki: 14.4 µM and 15 µM
MT1-MMP (MMP-14); listed as anti Imisdp mAb
  Ki: 10 µM
TACE (ADAM-17); Table 4
  IC50: > 30 µM
TACE (ADAM-17)
  inhibitory effect toward TACE: did not display inhibitory effect
TACE (ADAM-17); mAb concentrations of up to 30 μM
  inhibition of TACE: neither MMP-7 nor TACE were inhibited to any measurable extent
[2]; 5 μM mAb
  cell surface gelatinolytic activity: significantly decreased; also recorded: significantly inhibited
Carbonic Anhydrase (CA) [3]
  inhibition of Carbonic Anhydrase: no binding or inhibition
Carbonic Anhydrase (CA) [3]; mAb concentrations up to 30 μM
  inhibitory effect toward Carbonic Anhydrase: no inhibitory effect
Carbonic Anhydrase (CA) [4]
  binding to Carbonic Anhydrase: no binding
[5]
  inhibition of TbADH: no binding or inhibition
[5]; mAb concentrations up to 30 μM
  inhibitory effect toward TbADH: no inhibitory effect
[6]
  binding to TbADH: no binding
MMP9
  cleavage of mAb by MMP-9: not cleaved
